Results: the supplement of paper PMC5998384

Key:
[1] = tested on: HeLa Kyoto; experiment: melting temperature (median over replicates), in situ; higher = more thermally stable
[2] = tested on: HeLa Kyoto; experiment: solubility change mitosis vs G1/S (difference of NP-40 vs SDS log2 ratios) (log2 ratio difference); higher = more soluble in mitosis
[3] = tested on: HeLa Kyoto; experiment: thermal stability score vs G1/S (z-score of summed log2 fold changes over temperatures); higher = more thermally stable than in G1/S
[4] = tested on: HeLa Kyoto; experiment: solubility in G1/S (NP-40 vs SDS abundance) (log2 ratio); higher = more soluble; conditions: cell cycle stage: G1/S
[5] = cell cycle stage: early G1 (4.5 h after nocodazole release)
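For melting temperature (median over replicates), in situ in this document: HeLa Kyoto cells synchronized by double thymidine or nocodazole block, proteins quantified by TMT10plex mass spectrometry, three independent biological replicates.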
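For solubility change mitosis vs G1/S (difference of NP-40 vs SDS log2 ratios) in this document: synchronized HeLa Kyoto cells (double thymidine block for G1/S, nocodazole release for mitosis), protein amounts in NP-40 versus SDS lysates quantified by mass spectrometry, three biological replicates.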
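For solubility in G1/S (NP-40 vs SDS abundance) in this document: HeLa Kyoto cells arrested at G1/S by double thymidine block, proteins quantified by TMT10plex mass spectrometry in mild NP-40 versus SDS extracts, three biological replicates.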
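For thermal stability score vs G1/S (z-score of summed log2 fold changes over temperatures) in this document: synchronized HeLa Kyoto cells, proteins quantified by TMT10plex mass spectrometry, three biological replicates, mitosis taken 0.5 h after nocodazole release, G1/S directly after double thymidine block.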

| Sequence | melting temperature ([1]; cell cycle stage: G1/S) | melting temperature ([1]; cell cycle stage: mitosis) | solubility change mitosis (log2) [2] | thermal stability score [3, 5] | thermal stability score ([3]; cell cycle stage: mitosis) | solubility in G1/S (log2) [4] |
| --- | --- | --- | --- | --- | --- | --- |
| MASAELQGKYQKLAQEYSKLRAQNQVLKKGVVDEQANSAALKEQLKMKDQSLRKLQQEMDSLTFRNLQLAKRVELLQDELALSEPRGKKNKKSGESSSQLSQEQKSVFDEDLQKKIEENERLHIQFFEADEQHKHVEAELRSRLATLETEAAQHQAVVDGLTRKYMETIEKLQNDKAKLEVKSQTLEKEAKECRLRTEECQLQLKTLHEDLSGRLEESLSIINEKVPFNDTKYSQYNALNVPLHNRRHQLKMRDIAGQALAFVQDLVTALLNFHTYTEQRIQIFPVDSAIDTISPLNQKFSQYLHENASYVRPLEEGMLHLFESITEDTVTVLETTVKLKTFSEHLTSYICFLRKILPYQLKSLEEECESSLCTSALRARNLELSQDMKKMTAVFEKLQTYIALLALPSTEPDGLLRTNYSSVLTNVGAALHGFHDVMKDISKHYSQKAAIEHELPTATQKLITTNDCILSSVVALTNGAGKIASFFSNNLDYFIASLSYGPKAASGFISPLSAECMLQYKKKAAAYMKSLRKPLLESVPYEEALANRRILLSSTESREGLAQQVQQSLEKISKLEQEKEHWMLEAQLAKIKLEKENQRIADKLKNTGSAQLVGLAQENAAVSNTAGQDEATAKAVLEPIQSTSLIGTLTRTSDSEVPDVESREDLIKNHYMARIVELTSQLQLADSKSVHFYAECRALSKRLALAEKSKEALTEEMKLASQNISRLQDELTTTKRSYEDQLSMMSDHLCSMNETLSKQREEIDTLKMSSKGNSKKNKSR [PPP1R21] | 51.3 °C | 51 °C | -0.00813 | 1.34 | 1.02 | 0.371 |
| MASCAEPSEPSAPLPAGVPPLEDFEVLDGVEDAEGEEEEEEEEEEEDDLSELPPLEDMGQPPAEEAEQPGALAREFLAAMEPEPAPAPAPEEWLDILGNGLLRKKTLVPGPPGSSRPVKGQVVTVHLQTSLENGTRVQEEPELVFTLGDCDVIQALDLSVPLMDVGETAMVTADSKYCYGPQGRSPYIPPHAALCLEVTLKTAVDGPDLEMLTGQERVALANRKRECGNAHYQRADFVLAANSYDLAIKAITSSAKVDMTFEEEAQLLQLKVKCLNNLAASQLKLDHYRAALRSCSLVLEHQPDNIKALFRKGKVLAQQGEYSEAIPILRAALKLEPSNKTIHAELSKLVKKHAAQRSTETALYRKMLGNPSRLPAKCPGKGAWSIPWKWLFGATAVALGGVALSVVIAARN [FKBP8] | 48.7 °C | 49.5 °C | -0.0477 | 1.22 | 3 | 0.229 |
| MASCASIDIEDATQHLRDILKLDRPAGGPSAESPRPSSAYNGDLNGLLVPDPLCSGDSTSANKTGLRTMPPINLQEKQVICLSGDDSSTCIGILAKEVEIVASSDSSISSKARGSNKVKIQPVAKYDWEQKYYYGNLIAVSNSFLAYAIRAANNGSAMVRVISVSTSERTLLKGFTGSVADLAFAHLNSPQLACLDEAGNLFVWRLALVNGKIQEEILVHIRQPEGTPLNHFRRIIWCPFIPEESEDCCEESSPTVALLHEDRAEVWDLDMLRSSHSTWPVDVSQIKQGFIVVKGHSTCLSEGALSPDGTVLATASHDGYVKFWQIYIEGQDEPRCLHEWKPHDGRPLSCLLFCDNHKKQDPDVPFWRFLITGADQNRELKMWCTVSWTCLQTIRFSPDIFSSVSVPPSLKVCLDLSAEYLILSDVQRKVLYVMELLQNQEEGHACFSSISEFLLTHPVLSFGIQVVSRCRLRHTEVLPAEEENDSLGADGTHGAGAMESAAGVLIKLFCVHTKALQDVQIRFQPQLNPDVVAPLPTHTAHEDFTFGESRPELGSEGLGSAAHGSQPDLRRIVELPAPADFLSLSSETKPKLMTPDAFMTPSASLQQITASPSSSSSGSSSSSSSSSSSLTAVSAMSSTSAVDPSLTRPPEELTLSPKLQLDGSLTMSSSGSLQASPRGLLPGLLPAPADKLTPKGPGQVPTATSALSLELQEVEPLGLPQASPSRTRSPDVISSASTALSQDIPEIASEALSRGFGSSAPEGLEPDSMASAASALHLLSPRPRPGPELGPQLGLDGGPGDGDRHNTPSLLEAALTQEASTPDSQVWPTAPDITRETCSTLAESPRNGLQEKHKSLAFHRPPYHLLQQRDSQDASAEQSDHDDEVASLASASGGFGTKVPAPRLPAKDWKTKGSPRTSPKLKRKSKKDDGDAAMGSRLTEHQVAEPPEDWPALIWQQQRELAELRHSQEELLQRLCTQLEGLQSTVTGHVERALETRHEQEQRRLERALAEGQQRGGQLQEQLTQQLSQALSSAVAGRLERSIRDEIKKTVPPCVSRSLEPMAGQLSNSVATKLTAVEGSMKENISKLLKSKNLTDAIARAAADTLQGPMQAAYREAFQSVVLPAFEKSCQAMFQQINDSFRLGTQEYLQQLESHMKSRKAREQEAREPVLAQLRGLVSTLQSATEQMAATVAGSVRAEVQHQLHVAVGSLQESILAQVQRIVKGEVSVALKEQQAAVTSSIMQAMRSAAGTPVPSAHLDCQAQQAHILQLLQQGHLNQAFQQALTAADLNLVLYVCETVDPAQVFGQPPCPLSQPVLLSLIQQLASDLGTRTDLKLSYLEEAVMHLDHSDPITRDHMGSVMAQVRQKLFQFLQAEPHNSLGKAARRLSLMLHGLVTPSLP [EDC4] | 49.6 °C | 50.1 °C | -0.158 | 0.116 | 2.4 | 0.013 |
| MASDEGKLFVGGLSFDTNEQSLEQVFSKYGQISEVVVVKDRETQRSRGFGFVTFENIDDAKDAMMAMNGKSVDGRQIRVDQAGKSSDNRSRGYRGGSAGGRGFFRGGRGRGRGFSRGGGDRGYGGNRFESRSGGYGGSRDYYSSRSQSGGYSDRSSGGSYRDSYDSYATHNE [CIRBP] | 52.8 °C | 53 °C | 0.112 | -0.492 | -2.78 | -0.000215 |
| MASEDIAKLAETLAKTQVAGGQLSFKGKSLKLNTAEDAKDVIKEIEDFDSLEALRLEGNTVGVEAARVIAKALEKKSELKRCHWSDMFTGRLRTEIPPALISLGEGLITAGAQLVELDLSDNAFGPDGVQGFEALLKSSACFTLQELKLNNCGMGIGGGKILAAALTECHRKSSAQGKPLALKVFVAGRNRLENDGATALAEAFRVIGTLEEVHMPQNGINHPGITALAQAFAVNPLLRVINLNDNTFTEKGAVAMAETLKTLRQVEVINFGDCLVRSKGAVAIADAIRGGLPKLKELNLSFCEIKRDAALAVAEAMADKAELEKLDLNGNTLGEEGCEQLQEVLEGFNMAKVLASLSDDEDEEEEEEGEEEEEEAEEEEEEDEEEEEEEEEEEEEEPQQRGQGEKSATPSRKILDPNTGEPAPVLSSPPPADVSTFLAFPSPEKLLRLGPKSSVLIAQQTDTSDPEKVVSAFLKVSSVFKDEATVRMAVQDAVDALMQKAFNSSSFNSNTFLTRLLVHMGLLKSEDKVKAIANLYGPLMALNHMVQQDYFPKALAPLLLAFVTKPNSALESCSFARHSLLQTLYKV [RANGAP1] | 48.6 °C | 49 °C | 0.199 | 0.55 | 2.63 | 0.166 |
| MASEELQKDLEEVKVLLEKATRKRVRDALTAEKSKIETEIKNKMQQKSQKKAELLDNEKPAAVVAPITTGYTVKISNYGWDQSDKFVKIYITLTGVHQVPTENVQVHFTERSFDLLVKNLNGKSYSMIVNNLLKPISVEGSSKKVKTDTVLILCRKKVENTRWDYLTQVEKECKEKEKPSYDTETDPSEGLMNVLKKIYEDGDDDMKRTINKAWVESREKQAKGDTEF [CACYBP] | 52.2 °C | 52.2 °C | -0.0888 | 0.00133 | -1.11 | 0.412 |
| MASEQDVRARLQRAGQEHLLRFWAELAPEPRAALLAELALLEPEALREHCRRAAEACARPHGPPPDLAARLRPLPPERVGRASRSDPETRRRWEEEGFRQISLNKVAVLLLAGGQGTRLGVTYPKGMYRVGLPSRKTLYQLQAERIRRVEQLAGERHGTRCTVPWYVMTSEFTLGPTAEFFREHNFFHLDPANVVMFEQRLLPAVTFDGKVILERKDKVAMAPDGNGGLYCALEDHKILEDMERRGVEFVHVYCVDNILVRLADPVFIGFCVLQGADCGAKVVEKAYPEEPVGVVCQVDGVPQVVEYSEISPETAQLRASDGSLLYNAGNICNHFFTRGFLKAVTREFEPLLKPHVAVKKVPYVDEEGNLVKPLKPNGIKMEKFVFDVFRFAKNFAALEVLREEEFSPLKNAEPADRDSPRTARQALLTQHYRWALRAGARFLDAHGAWLPELPSLPPNGDPPAICEISPLVSYSGEGLEVYLQGREFQSPLILDEDQAREPQLQES [UAP1L1] | 52.3 °C | 53.1 °C | -0.0981 | -0.582 | -0.781 | 0.127 |
| MASERLPNRPACLLVASGAAEGVSAQSFLHCFTMASTAFNLQVATPGGKAMEFVDVTESNARWVQDFRLKAYASPAKLESIDGARYHALLIPSCPGALTDLASSGSLARILQHFHSESKPICAVGHGVAALCCATNEDRSWVFDSYSLTGPSVCELVRAPGFARLPLVVEDFVKDSGACFSASEPDAVHVVLDRHLVTGQNASSTVPAVQNLLFLCGSRK [PDDC1] | 55 °C | 55.4 °C | -0.0189 | -1.01 | -0.729 | 0.169 |
| MASGAYNPYIEIIEQPRQRGMRFRYKCEGRSAGSIPGEHSTDNNRTYPSIQIMNYYGKGKVRITLVTKNDPYKPHPHDLVGKDCRDGYYEAEFGQERRPLFFQNLGIRCVKKKEVKEAIITRIKAGINPFNVPEKQLNDIEDCDLNVVRLCFQVFLPDEHGNLTTALPPVVSNPIYDNRAPNTAELRICRVNKNCGSVRGGDEIFLLCDKVQKDDIEVRFVLNDWEAKGIFSQADVHRQVAIVFKTPPYCKAITEPVTVKMQLRRPSDQEVSESMDFRYLPDEKDTYGNKAKKQKTTLLFQKLCQDHVETGFRHVDQDGLELLTSGDPPTLASQSAGITVNFPERPRPGLLGSIGEGRYFKKEPNLFSHDAVVREMPTGVSSQAESYYPSPGPISSGLSHHASMAPLPSSSWSSVAHPTPRSGNTNPLSSFSTRTLPSNSQGIPPFLRIPVGNDLNASNACIYNNADDIVGMEASSMPSADLYGISDPNMLSNCSVNMMTTSSDSMGETDNPRLLSMNLENPSCNSVLDPRDLRQLHQMSSSSMSAGANSNTTVFVSQSDAFEGSDFSCADNSMINESGPSNSTNPNSHGFVQDSQYSGIGSMQNEQLSDSFPYEFFQV [REL] | 49.5 °C | 50.5 °C | -0.0913 | -0.962 | -0.219 | -0.0913 |
| MASGNARIGKPAPDFKATAVVDGAFKEVKLSDYKGKYVVLFFYPLDFTFVCPTEIIAFSNRAEDFRKLGCEVLGVSVDSQFTHLAWINTPRKEGGLGPLNIPLLADVTRRLSEDYGVLKTDEGIAYRGLFIIDGKGVLRQITVNDLPVGRSVDEALRLVQAFQYTDEHGEVCPAGWKPGSDTIKPNVDDSKEYFSKHN [PRDX2] | 55 °C | 55.1 °C | 0.0464 | -3.24 | -3.32 | 0.354 |
| MASKRALVILAKGAEEMETVIPVDVMRRAGIKVTVAGLAGKDPVQCSRDVVICPDASLEDAKKEGPYDVVVLPGGNLGAQNLSESAAVKEILKEQENRKGLIAAICAGPTALLAHEIGFGSKVTTHPLAKDKMMNGGHYTYSENRVEKDGLILTSRGPGTSFEFALAIVEALNGKEVAAQVKAPLVLKD [PARK7] | 56.8 °C | 57.4 °C | 0.0696 | 1.01 | -0.859 | 0.529 |
| MASLDRVKVLVLGDSGVGKSSLVHLLCQNQVLGNPSWTVGCSVDVRVHDYKEGTPEEKTYYIELWDVGGSVGSASSVKSTRAVFYNSVNGIIFVHDLTNKKSSQNLRRWSLEALNRDLVPTGVLVTNGDYDQEQFADNQIPLLVIGTKLDQIHETKRHEVLTRTAFLAEDFNPEEINLDCTNPRYLAAGSSNAVKLSRFFDKVIEKRYFLREGNQIPGFPDRKRFGAGTLKSLHYD [RABL3] | 52 °C | 51.9 °C | -0.0274 | -0.0942 | -1.09 | 0.0735 |
